Results from the Human Domainome abundance scans (Beltran et al. 2025).
± gives the uncertainty stated by the source.

B1: Homeobox expressed in ES cells 1, residues 110 to 165; numbered along this chain, Q9UBX0 (parent)
chain: RPRTAFTQNQIEVLENVFRVNCYPGIDIREDLAQKLNLEEDRIQIWFQNRRAKLKR

Variants of: B1
Assay: abundance fitness (aPCA) (normalised: wild type 0, dead -1); higher = more abundant; growth selection in yeast, the domain comes from the species named
Details: Homo sapiens

Variant | abundance fitness
R1A | 0.352 ± 0.4
R1C | 0.12 ± 0.33
R1G | -0.505 ± 0.38
R1S | -0.482 ± 0.43
R1T | -0.455 ± 0.49
R1V | 0.134 ± 0.27
R1Y | 0.406 ± 0.46
P2A | 0.028 ± 0.12
P2C | 0.048 ± 0.22
P2D | 0.699 ± 0.075
P2E | 0.734 ± 0.11
P2F | 0.425 ± 0.14
P2G | 0.309 ± 0.065
P2H | 0.545 ± 0.18
P2K | 0.522 ± 0.11
P2L | 0.297 ± 0.068
P2M | 0.333 ± 0.16
P2Q | 0.386 ± 0.19
P2R | -0.031 ± 0.13
P2T | 0.126 ± 0.12
P2V | 0.308 ± 0.079
P2W | -0.046 ± 0.16
P2Y | 0.772 ± 0.17
R3A | 0.182 ± 0.063

Variant | abundance fitness
R3C | -0.462 ± 0.44
R3D | 0.126 ± 0.09
R3E | 0.24 ± 0.099
R3F | 0.376 ± 0.19
R3G | 0.178 ± 0.077
R3H | -0.433 ± 0.44
R3I | 0.485 ± 0.11
R3K | -0.089 ± 0.091
R3L | -0.008 ± 0.074
R3M | 0.15 ± 0.14
R3N | -0.145 ± 0.28
R3Q | 0.27 ± 0.12
R3S | -0.181 ± 0.17
R3T | -0.013 ± 0.16
R3W | -0.674 ± 0.4
R3Y | 0.682 ± 0.17
T4A | -0.164 ± 0.11
T4C | 0.74 ± 0.16
T4D | -0.192 ± 0.42
T4E | 0.402 ± 0.096
T4F | 0.052 ± 0.2
T4G | 0.129 ± 0.091
T4H | 0.069 ± 0.32
T4I | -0.007 ± 0.27

Variant | abundance fitness
T4K | 0.116 ± 0.1
T4M | 0.634 ± 0.084
T4N | -0.067 ± 0.13
T4P | 0.125 ± 0.17
T4Q | 0.635 ± 0.14
T4R | 0.171 ± 0.12
T4S | -0.187 ± 0.082
T4V | -0.003 ± 0.15
T4W | -0.501 ± 0.2
T4Y | -0.163 ± 0.25
A5C | 0.377 ± 0.092
A5D | 0.653 ± 0.068
A5E | 0.596 ± 0.093
A5F | 0.324 ± 0.076
A5H | 0.164 ± 0.083
A5I | 0.275 ± 0.068
A5K | 0.412 ± 0.062
A5L | 0.249 ± 0.057
A5M | 0.609 ± 0.061
A5N | 0.391 ± 0.07
A5P | 0.295 ± 0.068
A5Q | 0.384 ± 0.068
A5R | 0.132 ± 0.073
A5S | 0.424 ± 0.052

Variant | abundance fitness
A5V | 0.296 ± 0.067
A5W | -0.21 ± 0.069
A5Y | 0.429 ± 0.059
F6A | -0.865 ± 0.25
F6C | -0.673 ± 0.22
F6D | -0.599 ± 0.32
F6G | -0.797 ± 0.11
F6I | -0.075 ± 0.2
F6K | -0.703 ± 0.13
F6M | 0.123 ± 0.14
F6N | -0.454 ± 0.46
F6Q | -0.678 ± 0.36
F6R | -0.688 ± 0.14
F6S | -0.791 ± 0.14
F6T | -0.859 ± 0.33
F6V | -0.155 ± 0.37
F6W | -0.365 ± 0.12
F6Y | -0.065 ± 0.21
T7A | -0.068 ± 0.096
T7C | -0.666 ± 0.23
T7D | 0.161 ± 0.23
T7E | -0.352 ± 0.24
T7F | -0.701 ± 0.45
T7G | -0.401 ± 0.098

Variant | abundance fitness
T7H | -0.312 ± 0.3
T7K | -0.245 ± 0.17
T7L | -0.417 ± 0.13
T7M | -0.288 ± 0.35
T7N | -0.084 ± 0.25
T7P | -0.664 ± 0.29
T7R | -0.587 ± 0.2
T7S | 0.112 ± 0.073
T7V | -0.681 ± 0.093
T7W | -0.845 ± 0.28
Q8A | 0.158 ± 0.065
Q8C | -0.183 ± 0.18
Q8D | -0.094 ± 0.082
Q8E | -0.019 ± 0.14
Q8F | -0.441 ± 0.29
Q8G | -0.416 ± 0.078
Q8H | -0.373 ± 0.38
Q8K | -0.179 ± 0.28
Q8M | -0.168 ± 0.12
Q8P | -0.082 ± 0.16
Q8S | 0.002 ± 0.1
Q8T | -0.244 ± 0.17
Q8V | 0.122 ± 0.1
Q8W | -0.598 ± 0.36

Variant | abundance fitness
Q8Y | -0.264 ± 0.26
N9A | -0.169 ± 0.18
N9C | -0.293 ± 0.26
N9D | 0.187 ± 0.27
N9E | 0.288 ± 0.15
N9F | -0.243 ± 0.25
N9G | -0.103 ± 0.1
N9H | 0.148 ± 0.14
N9I | 0.118 ± 0.2
N9K | -0.149 ± 0.26
N9L | 0.045 ± 0.14
N9M | 0.381 ± 0.068
N9P | -0.292 ± 0.12
N9R | -0.042 ± 0.13
N9S | -0.004 ± 0.13
N9T | -0.132 ± 0.088
N9V | 0.017 ± 0.075
N9Y | 0.044 ± 0.07
Q10D | -0.287 ± 0.14
Q10E | -0.278 ± 0.15
Q10F | -0.993 ± 0.32
Q10G | -0.574 ± 0.11
Q10H | -0.594 ± 0.14
Q10I | -0.404 ± 0.49

Variant | abundance fitness
Q10L | -0.744 ± 0.18
Q10M | 0.017 ± 0.43
Q10P | -0.922 ± 0.26
Q10R | -0.662 ± 0.14
Q10V | -0.279 ± 0.17
I11A | -0.344 ± 0.17
I11C | -0.628 ± 0.25
I11D | -0.072 ± 0.28
I11E | 0.274 ± 0.12
I11F | -0.648 ± 0.42
I11G | -0.891 ± 0.27
I11K | -0.237 ± 0.34
I11M | -0.652 ± 0.26
I11N | 0.091 ± 0.37
I11P | -0.598 ± 0.22
I11Q | -0.114 ± 0.28
I11R | -0.472 ± 0.13
I11T | -0.187 ± 0.13
I11V | -0.145 ± 0.083
I11W | -0.292 ± 0.2
I11Y | -0.46 ± 0.38
E12A | -0.257 ± 0.16
E12C | -0.341 ± 0.25
